According to patent US20220153832A1 (PIONYR IMMUNOTHERAPEUTICS, published 2022):

T1: Cynomolgus MARCO, full length, on cells (cynomolgus, UniProt A0A2K5X0Z2 1-519)
T1 construct: whole, on cells; also called cyno MARCO; CyMARCO
T1 sequence: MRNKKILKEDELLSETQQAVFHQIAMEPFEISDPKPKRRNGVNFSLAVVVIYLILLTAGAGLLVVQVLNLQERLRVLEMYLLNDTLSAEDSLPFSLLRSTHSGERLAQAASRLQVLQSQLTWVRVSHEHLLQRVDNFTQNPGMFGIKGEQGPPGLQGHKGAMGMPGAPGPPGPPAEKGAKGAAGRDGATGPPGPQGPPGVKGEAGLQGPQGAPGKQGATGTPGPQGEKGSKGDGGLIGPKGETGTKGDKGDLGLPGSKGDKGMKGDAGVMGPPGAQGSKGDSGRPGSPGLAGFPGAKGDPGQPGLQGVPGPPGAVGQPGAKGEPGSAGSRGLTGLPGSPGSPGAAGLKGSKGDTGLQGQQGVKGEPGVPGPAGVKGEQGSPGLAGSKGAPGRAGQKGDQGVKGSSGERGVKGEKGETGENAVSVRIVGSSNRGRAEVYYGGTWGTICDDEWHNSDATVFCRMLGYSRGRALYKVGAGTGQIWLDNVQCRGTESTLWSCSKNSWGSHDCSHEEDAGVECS

T2: Human Macrophage Receptor with Collagenous Structure (MARCO), full length, on cells (human, UniProt Q9UEW3 1-520)
T2 construct: the cell type is named under assay; also called huMARCO; HuMARCO
T2 sequence: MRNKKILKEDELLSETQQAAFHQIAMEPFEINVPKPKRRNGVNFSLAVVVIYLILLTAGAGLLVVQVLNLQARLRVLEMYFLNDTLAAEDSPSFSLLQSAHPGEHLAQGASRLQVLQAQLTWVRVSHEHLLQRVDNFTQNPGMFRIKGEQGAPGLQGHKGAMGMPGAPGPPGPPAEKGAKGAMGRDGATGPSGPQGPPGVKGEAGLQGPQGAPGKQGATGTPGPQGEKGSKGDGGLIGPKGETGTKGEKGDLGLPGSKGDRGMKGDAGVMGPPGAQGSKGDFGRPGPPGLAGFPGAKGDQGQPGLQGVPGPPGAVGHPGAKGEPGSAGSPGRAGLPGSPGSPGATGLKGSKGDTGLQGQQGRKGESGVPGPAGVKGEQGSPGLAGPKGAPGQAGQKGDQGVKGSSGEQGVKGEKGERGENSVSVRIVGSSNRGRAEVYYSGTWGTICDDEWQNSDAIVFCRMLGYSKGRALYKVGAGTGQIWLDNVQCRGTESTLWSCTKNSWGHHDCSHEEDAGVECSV


Experiments:
[1] = target: T1, Cynomolgus MARCO, full length, on cells; experiment: flow cytometry, 293T CyMARCO cells
Procedure, shortened: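 Flow cytometry was used to assess antibody binding to HEK293T cells expressing human or cynomolgus MARCO. After Zombie NIR viability staining, 100,000 cells/well were incubated for 1 hr on ice with antibodies in an 8-point three-fold dilution starting at 100 nM in D-PBS/2% FBS/2 mM EDTA, then with APC goat anti-mouse IgG for 30 min on ice. Cells were acquired on an Attune NxT, and geometric mean fluorescence intensities were analysed in FlowJo and Prism.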

[2] = target: T2, Human Macrophage Receptor with …; experiment: flow cytometry, 293T (HuMARCO)
Procedure: Supernatants were removed and cell pellets were resuspended in Ca²⁺+ and Mg²⁺+ Dulbecco's phosphate-buffered saline (D-PBS) at 1×10⁶ cells/ml. 100,000 cells/well were plated onto U-bottom 96-well plates for staining and all centrifugation steps were performed at 1500 rpm at 4° C. for 5 min and samples were kept protected from light throughout the protocol. Cells were pelleted and resuspended in 100 μl of Zombie NIR viability dye (BioLegend) prepared by diluting Zombie NIR dimethyl sulfoxide (DMSO) stock 1000-fold in D-PBS. Cells were stained by incubation for 10 min at room temperature (RT) in the dark, followed by quenching the staining reaction with the addition of 100 μl of Staining Medium (D-PBS containing 2% FBS and 2 mM ethylenediaminetetraacetic acid (EDTA). Cells were pelleted and resuspended in 100 μl of the different antibodies and hybridomas supernatants needed for screening and corresponding isotype controls in freshly prepared staining medium, such as PI-M014 and mIgG2b isotype. All mAbs were tested at the final top concentration of 100 nM (15 μg/ml) followed by an 8-point three-fold serial dilution, including 0 mg/ml control. Staining was carried out for 1 hour (hr) on ice, followed by 2 washes in Staining Medium. Cells were then pelleted and resuspended in 100 μl of allophycocyanin (APC)-conjugated goat anti-mouse IgG (Fc-specific) secondary antibody, prepared by 500-fold dilution of the antibody stocks in Staining Medium, and incubated for 30 min on ice. Plates were then washed two times with Staining Medium, followed by resuspension in 150 μl of the same buffer for acquisition on the flow cytometer (Attune NxT, Life Technologies). Flow cytometry data were analyzed using FlowJo software (version 10.6.1) and data were processed and further analyzed in Microsoft Excel and GraphPad Prism software (version 8). Half-maximal effective concentrations (EC₅₀) were calculated based on geometric mean fluorescence intensities (gMFI). In case when the plates were not able to be analyzed on the cytometer, cells were pelleted after the washes and fixed in 100 μl of 2% paraformaldehyde (PFA), prepared by diluting the 16% (w/v) stock (Thermo Fisher) in DPBS, for 15 min at RT. Cells were then pelleted and the fixative was removed, followed by resuspension in 150 μl of Staining Medium and stored at 4° C. until acquisition on the flow cytometer.

Binder	binding result [1]	EC50 [2] [nM]
PI-HX-3021 (antibody, V domains shown, Rat IgG2a hybridoma antibody; Not the effector dead PI-3021; also called PI-3007 (name of the recombinant form)) VH: QVRLVQSGTALVRPGASVRMSCTASGYSFTDYWVSWVKQSHGQSLEWIGEIYPNSGTTNFNEKFEGKATLTVDKSTSTAYMELSRLTSEDSAIYYCTGEGTFDYWGQGVMVTVSS VL: EIVLTQSPTTMAASPGEKVTITCRPSSSLSNMHWFQQKSGTSPKPWIYDTSKLASGVPDRFSGSGSGTSYSLTISSMEAEDAATYYCLQRSSYPPTFGAGTKLELK	no binding	–
PI-HX-3016 (antibody, rat IgG1, V domains shown, Rat IgG1 hybridoma antibody) VH: EVQLVESGGGLVKPGASLKLSCVASGFTFSDDWMNWVRQTPGKAMEWIGDIKYDGSYTNYVPSLKNRLTISRDNAKNTLYLQMTNVRSEDTATYYCTSGGVFDYWGQGVMVTVSS VL: EIVLSQSPTTMAASPGEKVTITCRASSSVSYMHWFQQKSGTSPKPWIYDTSKLASGVPDRFSGSGSGTSYSLTISSMEAEDAATYYCLQRSGYPPTFGAGTKLEVK	no binding	–
PI-HX-3031 (antibody, Parental rat hybridoma, rat IgG2a) heavy: QVQLKESGPGLVQPSQTLSLTCTVSGFSLTSYHVSWVRQPPGKGLEWMGAIWTGGSIAYNSLLKSRLSISRDTSKSQVFLKMNSLQTEDTATYYCARDLSDYYSSYTSFDYWGQGVMVTVSTAETTAPSVYPLAPGTALKSNSMVTLGCLVKGYFPEPVTVTWNSGALSSGVHTFPAVLQSGLYTLTSSVTVPSSTWSSQAVTCNVAHPASSTKVDKKIVPRECNPCGCTGSEVSSVFIFPPKTKDVLTITLTPKVTCVVVDISQNDPEVRFSWFIDDVEVHTAQTHAPEKQSNSTLRSVSELPIVHRDWLNGKTFKCKVNSGAFPAPIEKSISKPEGTPRGPQVYTMAPPKEEMTQSQVSITCMVKGFYPPDIYTEWKMNGQPQENYKNTPPTMDTDGSYFLYSKLNVKKETWQQGNTFTCSVLHEGLHNHHTEKSLSHSP light: DIQMTQSPASLSTSLGETVSIECLASEGISNDLAWYQQKSGKSPQLLIYAASRLQDGVPSRFSGSGSGTRYSLKISGMQPEDEADYFCQQSYKYPLTFGSGTKLEIKRADAAPTVSIFPPSTEQLATGGASVVCLMNNFYPRDISVKWKIDGTERRDGVLDSVTDQDSKDSTYSMSSTLSLTKADYESHNLYTCEVVHKTSSSPVVKSFNRNEC	–	0.141
PI-HX-3043 (antibody, rat IgG2a, Parental rat hybridoma, rat IgG2a) heavy: QVNLLQSRAALVKPGASVKLSCKASGYTFTDYYLHWVKQSHAKSLEWIGYINPNNAYTSYNEKFKSKATLTVDKSTNTAYMELSRLTSADSATYYCARDTTDYYNLHFAYWGQGTLVTVSSAETTAPSVYPLAPGTALKSNSMVTLGCLVKGYFPEPVTVTWNSGALSSGVHTFPAVLQSGLYTLTSSVTVPSSTWSSQAVTCNVAHPASSTKVDKKIVPRECNPCGCTGSEVSSVFIFPPKTKDVLTITLTPKVTCVVVDISQNDPEVRFSWFIDDVEVHTAQTHAPEKQSNSTLRSVSELPIVHRDWLNGKTFKCKVNSGAFPAPIEKSISKPEGTPRGPQVYTMAPPKEEMTQSQVSITCMVKGFYPPDIYTEWKMNGQPQENYKNTPPTMDTDGSYFLYSKLNVKKETWQQGNTFTCSVLHEGLHNHHTEKSLSHSP light: DIQMTQSPASLSASLGETVSIECLTSEGISNDLAWYQQKSGKSPQLLIYDASRLEDGVPSRFSGSGSGTRYSLKISGMQTEDEADYFCQQSYKYPLTFGSGTKLEIKRADAAPTVSIFPPSTEQLATGGASVVCLMNNFYPRDISVKWKIDGTERRDGVLDSVTDQDSKDSTYSMSSTLSLTKADYESHNLYTCEVVHKTSSSPVVKSFNRNEC	–	0.438
PI-HX-3061 (antibody, rat IgG2a, Parental rat hybridoma, rat IgG2a; cross reactive with human and mouse MARCO) heavy: EVQLVESGGGLVQPGSSLKLSCVASKFTFSNYGMNWIRQAPKKGLEWIALIYYNSNNKYYADSVKGRFTISRDNSKNTLYLEMNSLRSEDTAMYYCAKSLTGGSDYFDSWGQGVMVTVSSAETTAPSVYPLAPGTALKSNSMVTLGCLVKGYFPEPVTVTWNSGALSSGVHTFPAVLQSGLYTLTSSVTVPSSTWPSQTVTCNVAHPASSTKVDKKIVPRNCGGDCKPCICTGSEVSSVFIFPPKPKDVLTITLTPKVTCVVVDISQDDPEVHFSWFVDDVEVHTAQTRPPEEQFNSTFRSVSELPILHQDWLNGRTFRCKVTSAAFPSPIEKTISKPEGRTQVPHVYTMSPTKEEMTQNEVSITCMVKGFYPPDIYVEWQMNGQPQENYKNTPPTMDTDGSYFLYSKLNVKKEKWQQGNTFTCSVLHEGLHNHHTEKSLSHSP light: DVQMTQSPSYLAASPGESVSISCKASKSIGTFLAWYQEKPEKTNKLLIYSGSTLQSGTPSRFSGSGSGTDFTLTIRNLEPEDFAVYYCQQHDEYPFTFGSGTKLEIKRADAAPTVSIFPPSTEQLATGGASVVCLMNNFYPRDISVKWKIDGTERRDGVLDSVTDQDSKDSTYSMSSTLSLTKADYESHNLYTCEVVHKTSSSPVVKSFNRNEC	–	0.49
